Laboratory results taken from the Human Domainome abundance scans (Beltran et al. 2025).

B1: Far upstream element-binding protein 3, residues 75 to 150; numbered along this chain, Q96I24 (parent)
chain: RTVITEEFKVPDKMVGFIIGRGGEQISRIQAESGCKIQIASESSGIPERPCVLTGTPESIEQAKRLLGQIVDRCRN

Variants of: B1
Test: abundance fitness (aPCA) (normalised: wild type 0, dead -1); higher = more abundant; growth selection in yeast, the domain comes from the species named
Conditions: Homo sapiens

Abundance fitness, by site and new letter:
S44: N -0.053; K -0.005; F -0.06; G -0.021; Q 0.006; V -0.05; H -0.013; E -0.009; R -0.046; Y -0.086; T -0.015; L -0.017; P -0.058; I -0.07
G34: I -0.736; P -0.775; E -0.089; Q -0.06; A -0.124; F -0.292; W -0.665; H -0.155; D -0.073; K -0.027; L -0.264; Y -0.361; R -0.079; N -0.046; S -0.079; C -0.268; T -0.268
C35: S -0.276; L -0.763; W -0.895; A -0.025; K -0.608; F -1.06; Q -0.588; R -0.732; Y -0.578; I -0.397; G -0.663; H -0.585; N -0.539; E -0.539; P -0.758; V -0.157
K36: Y -0.14; T -0.051; L -0.057; Q -0.065; V -0.101; G -0.112; P -0.811; I -0.112; C -0.116; E -0.02; M -0.066; F -0.234; A -0.065; R -0.027; D 0.001; W -0.18; S -0.034
A40: F 0.013; H -0.032; Q 0.044; N -0.076; L -0.038; D 0.002; K -0.024; G -0.018; P -0.024; Y -0.112; V -0.094; T -0.04; I -0.036; M -0.063; W -0.1
R49: G -0.129; K -0.099; D -0.251; M -0.169; L -0.19; C -0.091; T -0.044; Q -0.081; P -0.182; E -0.159; N -0.155; W -0.271; F -0.195; A -0.173; S -0.141; V -0.052; I -0.141
I39: S -0.485; W -0.159; M -0.067; F -0.114; T -0.321; L -0.107; C -0.152; G -0.48; H -0.44; R -0.526; V -0.027; Q -0.399; A -0.437; Y -0.327; P -0.394; E -0.502; K -0.614
G45: H -0.065; R -0.055; K -0.093; I -0.158; P -0.067; N -0.01; E -0.052; C -0.094; D -0.011; S -0.051; Q -0.046; A -0.041; L -0.124; W -0.15; M -0.101; Y -0.168
L53: G -0.971; M -0.134; D -0.96; I -0.016; A -0.473; H -1.09; K -1.12; F -0.354; C -0.191; E -1.05
S43: M -0.079; E -0.049; V -0.057; G -0.041; D -0.036; K -0.11; N -0.125; P 0.018; I 0.028; F -0.092; R -0.079; L -0.102; C 0.017; W -0.155; A -0.064; Q -0.055
S41: P -0.027; T -0.02; H -0.099; G -0.015; C -0.026; D -0.06; A -0.035; N 0.022; I -0.092; F -0.176; Y -0.164; W -0.159; V -0.089; Q 0.012; R 0.032; K 0.058
P47: H -0.028; Q -0.068; I -0.021; W -0.084; K -0.023; Y -0.12; N -0.077; C -0.027; V -0.041; S 0.024; A -0.03; F -0.096; L -0.043; E -0.037; M -0.072; T -0.063; R -0.065; G -0.058
E48: D 0.001; C -0.158; R -0.153; Y -0.056; V -0.127; M -0.048; L -0.068; N -0.1; Q -0.108; F -0.09; S -0.043; I -0.162; A -0.137; T -0.109; P -0.242; W -0.055
Q38: G -0.105; W -0.107; D -0.092; A -0.038; M -0.101; R -0.055; V -0.007; C -0.053; Y -0.172; I -0.098; H -0.059; K -0.022; T -0.047; S -0.06; E -0.013; P -0.829; F -0.1; N -0.086
S33: Q -0.732; V -0.247; N -0.685; K -0.787; P -0.728; T -0.063; R -0.827; M -0.646
E42: Y -0.086; Q -0.035; P -0.037; F -0.093; G -0.013; K -0.047; T -0.04; L -0.086; W -0.069; H 0.01; N -0.043; I -0.139; D -0.023; A -0.039; V -0.041; S -0.037; R 0.005
I37: C -0.239; A -0.515; K -0.522; D -0.528; S -0.658; T -0.505; Y -0.799; E -0.595; H -0.816; N -0.69; P -0.609; L -0.158; W -0.955; M -0.232; G -0.664; F -0.447; R -0.73; Q -0.665
V52: F -0.107; Y -0.115; E -0.073; A -0.029; N -0.133; P -0.931; S -0.005; R -0.072; L -0.023; I -0.034; C -0.093; Q 0.043; D -0.16; H -0.064; M -0.039; T -0.044
I46: V -0.007; N 0.031; K -0.003; E 0.063; T 0.032; P 0.016; C 0.023; D -0.061; Q -0.007; M -0.053; F -0.023; H 0.02; A 0.03; R -0.046; S -0.018; L 0.018; W -0.093; G 0.011
P50: M -0.04; A -0.042; I 0.004; G -0.014; R -0.06; D -0.079; L -0.043; C -0.054; F -0.119; S -0.046; E -0.01; N 0.01; Y -0.113; H -0.04; T -0.053; V -0.031; K -0.029
C51: Y -0.311; T -0.108; R -0.926; F -0.009; H -0.475; G -0.206; M -0.068; S -0.366; Q -0.688; E -0.924; W -0.147; L -0.062; V -0.009; A -0.075; N -0.634; D -0.633; P -0.671
